Patent publication US20260055183A1

Target: triggering receptor expressed on myeloid cells 1 (TREM-1), human, on monocytes / PBMCs of healthy donors (human) (UniProt Q9NP99)
Assay: cell-based or functional assay

Sequence of peptidoglycan-recognition-protein 1 (PGLYRP1) (O75594 22-196 limits assumed): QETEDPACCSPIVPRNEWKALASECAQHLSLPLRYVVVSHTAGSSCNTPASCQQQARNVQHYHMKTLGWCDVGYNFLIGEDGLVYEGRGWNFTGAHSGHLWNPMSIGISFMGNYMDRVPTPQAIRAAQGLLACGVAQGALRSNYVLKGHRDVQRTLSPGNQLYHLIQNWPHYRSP
Sequence of triggering receptor expressed on myeloid cells 1 (TREM-1), human, on monocytes / PBMCs of healthy donors (human) (Q9NP99 21-234 limits assumed): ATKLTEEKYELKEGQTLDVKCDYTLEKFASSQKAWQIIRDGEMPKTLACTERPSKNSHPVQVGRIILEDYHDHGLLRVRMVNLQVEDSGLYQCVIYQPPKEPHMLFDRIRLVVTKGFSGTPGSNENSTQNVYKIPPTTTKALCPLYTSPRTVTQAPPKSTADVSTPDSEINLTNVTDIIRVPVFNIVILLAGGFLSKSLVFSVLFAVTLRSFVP

A Log2FC P + L vs P, ACOT7 mRNA in monocytes (log2 fold change) of 2.23, a Log2FC P + L vs P, CD52 mRNA in monocytes (log2 fold change) of 2.28 and a Log2FC P + L vs P, CD55 mRNA in monocytes (log2 fold change) of 2.39 were found for “peptidoglycan-recognition-protein 1 (PGLYRP1) (from UniProt O75594 22-196) (ligand)” in this work. For the same substance, the Log2FC P + L vs P, CDKN1A mRNA in monocytes (log2 fold change) was 2.3, the Log2FC P + L vs P, CHI3L1 mRNA in monocytes (log2 fold change) was 5.62 and the Log2FC P + L vs P, CISH mRNA in monocytes (log2 fold change) was 3.28. It also gave a Log2FC P + L vs P, CLEC12A mRNA in monocytes (log2 fold change) of 2.94, a Log2FC P + L vs P, DHRS9 mRNA in monocytes (log2 fold change) of 3.22 and a Log2FC P + L vs P, EHD1 mRNA in monocytes (log2 fold change) of 3.37. For the same substance, the Log2FC P + L vs P, FAM129A mRNA in monocytes (log2 fold change) was 2.31, the Log2FC P + L vs P, GALNT6 mRNA in monocytes (log2 fold change) was 2.09 and the Log2FC P + L vs P, IFNLR1 mRNA in monocytes (log2 fold change) was 3.07. It also gave a Log2FC P + L vs P, MFSD12 mRNA in monocytes (log2 fold change) of 3.07, a Log2FC P + L vs P, MTMR11 mRNA in monocytes (log2 fold change) of 2.58 and a Log2FC P + L vs P, NAMPT mRNA in monocytes (log2 fold change) of 3.47. For the same substance, the Log2FC P + L vs P, PIM2 mRNA in monocytes (log2 fold change) was 2.71, the Log2FC P + L vs P, PLK3 mRNA in monocytes (log2 fold change) was 2.67 and the Log2FC P + L vs P, SLC27A3 mRNA in monocytes (log2 fold change) was 2.74. It also gave a Log2FC P + L vs P, STARD4 mRNA in monocytes (log2 fold change) of 2.56, a Log2Fc.P + L vs P, CCL1 mRNA in monocytes (log2 fold change) of 8.39 and a Log2Fc.P + L vs P, CCL20 mRNA in monocytes (log2 fold change) of 8.73. It also gave a Log2Fc.P + L vs P, CXCL3 mRNA in monocytes (log2 fold change) of 7.21, a Log2Fc.P + L vs P, F3 mRNA in monocytes (log2 fold change) of 7.55 and a Log2Fc.P + L vs P, IL6 mRNA in monocytes (log2 fold change) of 9.16. It also gave a Log2Fc.P + L vs P, IL23A mRNA in monocytes (log2 fold change) of 6.96, a Log2Fc.P + L vs P, IL24 mRNA in monocytes (log2 fold change) of 6.66 and a Log2Fc.P + L vs P, IL36G mRNA in monocytes (log2 fold change) of 7.91. The Log2Fc.P + L vs P, ILIA (Interleukin 1, alpha) mRNA in monocytes (log2 fold change) was 6.86, the Log2Fc.P + L vs P, ILIRN (Interleukin 1 receptor antagonist) mRNA in monocytes (log2 fold change) was 7.28 and the Log2Fc.P + L vs P, INHBA mRNA in monocytes (log2 fold change) was 8.04. It also gave a Log2Fc.P + L vs P, MMP1 mRNA in monocytes (log2 fold change) of 9.31, a Log2Fc.P + L vs P, MMP7 mRNA in monocytes (log2 fold change) of 8.32 and a Log2Fc.P + L vs P, MMP10 mRNA in monocytes (log2 fold change) of 8.47. It also gave a Log2Fc.P + L vs P, OCSTAMP mRNA in monocytes (log2 fold change) of 7.62, a Log2Fc.P + L vs P, PTGS2 mRNA in monocytes (log2 fold change) of 8.32 and a Log2Fc.P + L vs P, RGS16 mRNA in monocytes (log2 fold change) of 7.52. It also gave a Log2Fc.P + L vs P, SCG5 mRNA in monocytes (log2 fold change) of 8.09, a Log2Fc.P + L vs P, TFPI2 mRNA in monocytes (log2 fold change) of 7.57 and a Log2Fc.P + L vs P, TNFSF15 mRNA in monocytes (log2 fold change) of 8.65.
